In paper PMC4873975 (2016):

T1: FcɛRIα (recombinant, soluble) (human, UniProt P12319 26-205)
T1 chain: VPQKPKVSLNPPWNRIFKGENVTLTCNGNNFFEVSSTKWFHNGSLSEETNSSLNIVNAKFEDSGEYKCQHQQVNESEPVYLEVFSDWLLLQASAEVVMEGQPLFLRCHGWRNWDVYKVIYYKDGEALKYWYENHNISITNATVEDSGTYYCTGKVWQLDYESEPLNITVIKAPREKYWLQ


What was measured:
[1] = target: T1, FcɛRIα (recombinant, soluble); experiment: SPR; insect-derived IgE-Fc3-4
[2] = target: T1, FcɛRIα (recombinant, soluble); experiment: SPR; mammalian-derived IgE-Fc3-4
[3] = target: T1, FcɛRIα (recombinant, soluble); experiment: SPR; mammalian-derived IgE-Fc3-4
[4] = target: T1, FcɛRIα (recombinant, soluble); experiment: SPR; insect-derived IgE-Fc3-4
[5] = target: T1, FcɛRIα (recombinant, soluble); experiment: SPR; mammalian-derived
[6] = target: T1, FcɛRIα (recombinant, soluble); experiment: SPR; mammalian-derived

| Binder | koff [1] | koff [2] | Kd [3] | Kd [4] | koff [5] | Kd [6] |
| --- | --- | --- | --- | --- | --- | --- |
| IgE-Fc3–4 (wild type) (domain or fragment) CADSNPRGVSAYLSRPSPFDLFIRKSPTITCLVVDLAPSKGTVNLTWSRASGKPVNHSTRKEEKQRNGTLTVTSTLPVGTRDWIEGETYQCRVTHPHLPRALMRSTTKTSGPRAAPEVYAFATPEWPGSRDKRTLACLIQNFMPEDISVQWLHNEVQLPDARHSTTQPRKTKGSGFFVFSRLEVTRAEWEQKDEFICRAVHEAASPSQTVQRAVSVNPGK | 0.000946 s⁻¹ | 0.00102 s⁻¹ | 0.933 nM | 0.66 nM |  |  |
| IgE-R419N-Fc3–4 (domain or fragment, additional N-linked glycan at the site made by R419N (NVT)) CADSNPRGVSAYLSRPSPFDLFIRKSPTITCLVVDLAPSKGTVNLTWSRASGKPVNHSTRKEEKQRNGTLTVTSTLPVGTRDWIEGETYQCNVTHPHLPRALMRSTTKTSGPRAAPEVYAFATPEWPGSRDKRTLACLIQNFMPEDISVQWLHNEVQLPDARHSTTQPRKTKGSGFFVFSRLEVTRAEWEQKDEFICRAVHEAASPSQTVQRAVSVNPGK |  |  |  |  | 0.000773 s⁻¹ | 2.26 nM |
